From patent publication US20230190801A1

Target: CD38 (human) (UniProt P28907)
Test: cell-based or functional assay

## daratumumab (antibody)
  daratumumab-induced fratricide of expanded NK cells (1 µg/mL daratumumab, 4 h, PI flow cytometry) (times lower (g-NK vs cNK)): 13
  g-NK cell-mediated cytotoxicity against daratumumab-treated MM cell lines, correlation with CD38 expression: 0.92 R^2
